Reference: patent publication US20240092919A1

Columns and labels:
Assay in all cases: cell-based or functional assay
[1] = target: human GPC3 on cells (human) (UniProt P51654)
[2] = target: Cynomolgus T cell receptor on cynomolgus primary T cells (cynomolgus monkey)
[3] = target: Human T cell receptor on human primary T cells (human) (UniProt P01848)
Chain of Human T cell receptor on human primary T cells (human) (P01848 whole entry, chain 1 of 2): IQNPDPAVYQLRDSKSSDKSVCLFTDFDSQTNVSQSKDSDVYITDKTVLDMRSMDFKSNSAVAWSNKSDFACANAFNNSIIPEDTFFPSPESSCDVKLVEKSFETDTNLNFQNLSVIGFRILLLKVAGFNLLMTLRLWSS
Chain of Human T cell receptor on human primary T cells (human) (P01850 whole entry, chain 2 of 2, further chain): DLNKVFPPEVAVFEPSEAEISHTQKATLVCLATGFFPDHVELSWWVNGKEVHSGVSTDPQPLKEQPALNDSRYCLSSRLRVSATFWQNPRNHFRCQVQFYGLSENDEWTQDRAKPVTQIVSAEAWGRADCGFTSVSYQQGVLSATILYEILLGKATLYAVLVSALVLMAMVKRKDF

| Binder | IC50 (M) BxPC-3, xCELLigence human TDC assay, E:T 15:1, 60 h [1] | IC50 (M) HepG2, xCELLigence human TDC assay, E:T 15:1, 60 h [1] | IC50 (M) Huh-7, xCELLigence human TDC assay, E:T 15:1, 60 h [1] | IC50 (M) NCI-H23, xCELLigence human TDC assay, E:T 15:1, 60 h [1] | IC50 (M) NCI-H661, xCELLigence human TDC assay, E:T 15:1, 60 h [1] | HepG2 on Incucyte IC50 (M), human TDC, E:T 15:1, 60 h [1] | Huh7 on xCELLigence IC50 (M), human TDC, E:T 15:1, 60 h [1] | HepG2 on Incucyte Max % killing, 60 h [1] | Huh7 on xCELLigence Max % killing, 60 h [1] | further results |
| --- | --- | --- | --- | --- | --- | --- | --- | --- | --- | --- |
| A022600174 (protein) DVQLVESGGGVVQPGGSLRLSCVASGYVHKINFYGWYRQAPGKEREKVAHISIGDQTDYADSAKGRFTISRDESKNTVYLQMNSLRPEDTAAYYCRALSRIWPYDYWGQGTLVTVSSGGGGSEVQLVESGGGLVQPGGSLRLSCVASGFTFSSFAMTWVRRPPGKGLEWVATITNGGVTSYRDSVKGRFTISRDNAKNTLYLEMTSLNPEDTAVYICANARRTGPRAPTDIGSYRGQGTLVTVSSGGGGSGGGSEVQLVESGGGLVQPGGSLRLSCVASGSIFRSVFSSSTMEWYRQPPGKKRELVARIAPGDGTNYGALYADSVKGRFTISRDDAKKTVDLQMNSLKPEDTGVYFCASGVAWGQGTLVTVSSGGGGSGGGSEVQLVESGGGVVQPGGSLRLSCAASGFTFRSFGMSWVRQAPGKGPEWVSSISGSGSDTLYADSVKGRFTISRDNSKNTLYLQMNSLRPEDTALYYCTIGGSLSRSSQGTLVTVSSA |  |  |  |  |  | 6.73e-10 M | 6.26e-11 M | 96% | 99% |  |
| A022600170 (protein) DVQLVESGGGVVQPGGSLRLSCVASGYVHKINFYGWYRQAPGKEREKVAHISIGDQTDYADSAKGRFTISRDESKNTVYLQMNSLRPEDTAAYYCRALSRIWPYDYWGQGTLVTVSSGGGGSEVQLVESGGGLVQPGGSLRLSCVASGFTFSSFAMTWVRRPPGKGLEWVATITNGGVTSYRDSVKGRFTISRDNAKNTLYLEMTSLNPEDTAVYICANARRTGPRAPTDIGSYRGQGTLVTVSSGGGGSGGGGSGGGGSGGGGSGGGGSGGGGSGGGGSEVQLVESGGGLVQPGGSLRLSCVASGSIFRSVFSSSTMEWYRQPPGKKRELVARIAPGDGTNYGALYADSVKGRFTISRDDAKKTVDLQMNSLKPEDTGVYFCASGVAWGQGTLVTVSSGGGGSGGGSEVQLVESGGGVVQPGGSLRLSCAASGFTFRSFGMSWVRQAPGKGPEWVSSISGSGSDTLYADSVKGRFTISRDNSKNTLYLQMNSLRPEDTALYYCTIGGSLSRSSQGTLVTVSSA |  |  |  |  |  | 3.19e-10 M | 1.86e-10 M | 97% | 103% |  |
| A022600169 (protein) DVQLVESGGGLVQPGGSLRLSCVASGFTFSSFAMTWVRRPPGKGLEWVATITNGGVTSYRDSVKGRFTISRDNAKNTLYLEMTSLNPEDTAVYICANARRTGPRAPTDIGSYRGQGTLVTVSSGGGGSEVQLVESGGGVVQPGGSLRLSCVASGYVHKINFYGWYRQAPGKEREKVAHISIGDQTDYADSAKGRFTISRDESKNTVYLQMNSLRPEDTAAYYCRALSRIWPYDYWGQGTLVTVSSGGGGSEVQLVESGGGLVQPGGSLRLSCVASGSIFRSVFSSSTMEWYRQPPGKKRELVARIAPGDGTNYGALYADSVKGRFTISRDDAKKTVDLQMNSLKPEDTGVYFCASGVAWGQGTLVTVSSGGGGSGGGGSGGGGSGGGGSGGGGSGGGGSGGGGSEVQLVESGGGVVQPGGSLRLSCAASGFTFRSFGMSWVRQAPGKGPEWVSSISGSGSDTLYADSVKGRFTISRDNSKNTLYLQMNSLRPEDTALYYCTIGGSLSRSSQGTLVTVSSA |  |  |  |  |  | 6.41e-10 M | 1.02e-09 M | 81% | 61% |  |
| T017000139 (bispecific antibody) DVQLVESGGGLVQPGGSLRLSCVASGDVHKINFLGWYRQAPGKEREKVAHISIGDQTDYADSAKGRFTISRDESKNMVYLQMNSLKPEDTAVYFCRAFSRIYPYDYWGQGTLVTVSSGGGGSGGGGSGGGGSGGGGSGGGGSGGGGSGGGGSEVQLVESGGGLVQAGGPLRLSCAASGRTFSSYVMGWFRQAPGKEREFVAAIYWSNGKTQYTDSVKGRFTISGDNAKNTVYLQMNSLNPEDTAVYYCVADKDETGFRTLPIAYDYWGQGTLVTVSSGGGGSGGGGSGGGGSGGGGSGGGGSGGGGSGGGGSEVQLVESGGGLVQAGGSLRLSCAASGITSKINDMGWYRQTPGNYREWVASITATGTTNYRDSVKGRFTISRDNAKSTVYLQMNSLKPEDTTVYYCNTFPPISNFWGQGTLVTVSSA |  |  |  |  |  |  |  |  |  | % lysis, KG-1a, Cynomolgus T cell mediated killing [2]: 26%; % lysis, MOLM-13, Cynomolgus T cell mediated killing [2]: 40%; Average EC50 (M), KG-1a, Cynomolgus T cell mediated killing [2]: 1.2e-11 M; Average EC50 (M), MOLM-13, Cynomolgus T cell mediated killing [2]: 7.2e-11 M; % lysis, KG-1a, Human T cell mediated killing [3]: 51%; % lysis, MOLM-13, Human T cell mediated killing [3]: 25%; Average EC50 (M), KG-1a, Human T cell mediated killing [3]: 7.8e-11 M; Average EC50 (M), MOLM-13, Human T cell mediated killing [3]: 2.5e-11 M; IC50 (M), xCELLigence cell killing, Human T cell mediated killing, E:T 15:1 [3]: 4.7e-11 M |
| A022600172 (protein) DVQLVESGGGVVQPGGSLRLSCVASGYVHKINFYGWYRQAPGKEREKVAHISIGDQTDYADSAKGRFTISRDESKNTVYLQMNSLRPEDTAAYYCRALSRIWPYDYWGQGTLVTVSSGGGGSEVQLVESGGGLVQPGGSLRLSCVASGFTFSSFAMTWVRRPPGKGLEWVATITNGGVTSYRDSVKGRFTISRDNAKNTLYLEMTSLNPEDTAVYICANARRTGPRAPTDIGSYRGQGTLVTVSSGGGGSGGGSEVQLVESGGGVVQPGGSLRLSCAASGFTFRSFGMSWVRQAPGKGPEWVSSISGSGSDTLYADSVKGRFTISRDNSKNTLYLQMNSLRPEDTALYYCTIGGSLSRSSQGTLVTVSSGGGGSGGGSEVQLVESGGGLVQPGGSLRLSCVASGSIFRSVFSSSTMEWYRQPPGKKRELVARIAPGDGTNYGALYADSVKGRFTISRDDAKKTVDLQMNSLKPEDTGVYFCASGVAWGQGTLVTVSSA |  |  |  |  |  | 6.01e-10 M | 6.7e-11 M | 81% | 90% |  |
| A022600179 (protein) DVQLVESGGGVVQPGGSLRLSCVASGYVHKINFYGWYRQAPGKEREKVAHISIGDQTDYADSAKGRFTISRDESKNTVYLQMNSLRPEDTAAYYCRALSRIWPYDYWGQGTLVTVSSGGGGSEVQLVESGGGLVQPGGSLRLSCVASGFTFSSFAMTWVRRPPGKGLEWVATITNGGVTSYRDSVKGRFTISRDNAKNTLYLEMTSLNPEDTAVYICANARRTGPRAPTDIGSYRGQGTLVTVSSGGGGSGGGSEVQLVESGGGVVQPGGSLRLSCAASGFTFRSFGMSWVRQAPGKGPEWVSSISGSGSDTLYADSVKGRFTISRDNSKNTLYLQMNSLRPEDTALYYCTIGGSLSRSSQGTLVTVSSA |  |  |  |  |  | 2.92e-09 M | 6.13e-09 M | 76% | 66% |  |

More lines, main results first:

| IC50 (M) BxPC-3, xCELLigence human TDC assay, E:T 15:1, 60 h [1] | IC50 (M) HepG2, xCELLigence human TDC assay, E:T 15:1, 60 h [1] | IC50 (M) Huh-7, xCELLigence human TDC assay, E:T 15:1, 60 h [1] | IC50 (M) NCI-H23, xCELLigence human TDC assay, E:T 15:1, 60 h [1] | IC50 (M) NCI-H661, xCELLigence human TDC assay, E:T 15:1, 60 h [1] | HepG2 on Incucyte IC50 (M), human TDC, E:T 15:1, 60 h [1] | Huh7 on xCELLigence IC50 (M), human TDC, E:T 15:1, 60 h [1] | Binder | HepG2 on Incucyte Max % killing, 60 h [1] | Huh7 on xCELLigence Max % killing, 60 h [1] | further results |
| --- | --- | --- | --- | --- | --- | --- | --- | --- | --- | --- |
| > 1e-07 M | 1.03e-10 M | 1.37e-10 M | > 1e-07 M | 1e-10 M |  |  | A022600427 (protein) DVQLVESGGGVVQPGGSLRLSCVASGYVHKINFYGWYRQAPGKEREKVAHISIGDQTDYADSAKGRFTISRDESKNTVYLQMNSLRPEDTAAYYCRALSRIWPYDYWGQGTLVTVSSGGGGSEVQLVESGGGVVQPGGSLRLSCAASGFTFSSFAMTWVRRPPGKGLEWVATITNAGVTSYADSVKGRFTISRDNAKNTLYLQMNSLRPEDTALYICANARRTGPRAPTDIGSYRGQGTLVTVSSGGGGSGGGSEVQLVESGGGVVQPGGSLRLSCAASGSIFRSVFSSSTMEWYRQAPGKKRELVARIAPGEGTYYGALYADSVKGRFTISRDNAKNTVYLQMNSLRPEDTALYYCASGVAWGQGTLVTVSSGGGGSGGGSEVQLVESGGGVVQPGGSLRLSCAASGFTFRSFGMSWVRQAPGKGPEWVSSISGSGSDTLYADSVKGRFTISRDNSKNTLYLQMNSLRPEDTALYYCTIGGSLSRSSQGTLVTVSSA |  |  |  |
| > 1e-07 M | 3.82e-10 M | 1.53e-09 M |  | 6.18e-10 M |  |  | A022600412 (protein) DVQLVESGGGVVQPGGSLRLSCVASGYVHKINFYGWYRQAPGKEREKVAHISIGDQTDYADSAKGRFTISRDESKNTVYLQMNSLRPEDTAAYYCRALSRIWPYDYWGQGTLVTVSSGGGGSEVQLVESGGGVVQPGGSLRLSCAASGFTFSSFAMTWVRRPPGKGLEWVATITNAGVTSYADSVKGRFTISRDNAKNTLYLQMNSLRPEDTALYICANARRTGPRAPTDIGSYRGQGTLVTVSSGGGGSGGGGSGGGGSGGGGSEVQLVESGGGVVQPGGSLRLSCAASGFTFRSFGMSWVRQAPGKGPEWVSSISGSGSDTLYADSVKGRFTISRDNSKNTLYLQMNSLRPEDTALYYCTIGGSLSRSSQGTLVTVSSA |  |  |  |
| > 1e-07 M | 1.11e-10 M | 1.58e-10 M | > 1e-07 M | 2.59e-10 M |  |  | A022600425 (protein) DVQLVESGGGVVQPGGSLRLSCVASGYVHKINFYGWYRQAPGKEREKVAHISIGDQTDYADSAKGRFTISRDESKNTVYLQMNSLRPEDTAAYYCRALSRIWPYDYWGQGTLVTVSSGGGGSEVQLVESGGGVVQPGGSLRLSCAASGSIFRSVFSSSTMEWYRQAPGKKRELVARIAPGEGTYYGALYADSVKGRFTISRDNAKNTVYLQMNSLRPEDTALYYCASGVAWGQGTLVTVSSGGGGSGGGGSGGGGSGGGGSEVQLVESGGGVVQPGGSLRLSCAASGFTFSSFAMTWVRRPPGKGLEWVATITNAGVTSYADSVKGRFTISRDNAKNTLYLQMNSLRPEDTALYICANARRTGPRAPTDIGSYRGQGTLVTVSSGGGGSGGGSEVQLVESGGGVVQPGGSLRLSCAASGFTFRSFGMSWVRQAPGKGPEWVSSISGSGSDTLYADSVKGRFTISRDNSKNTLYLQMNSLRPEDTALYYCTIGGSLSRSSQGTLVTVSSA |  |  |  |
| > 1e-07 M | 1.25e-10 M | 1.09e-10 M | > 1e-07 M | 2.64e-10 M |  |  | A022600426 (protein) DVQLVESGGGVVQPGGSLRLSCVASGYVHKINFYGWYRQAPGKEREKVAHISIGDQTDYADSAKGRFTISRDESKNTVYLQMNSLRPEDTAAYYCRALSRIWPYDYWGQGTLVTVSSGGGGSEVQLVESGGGVVQPGGSLRLSCAASGSIFRSVFSSSTMEWYRQAPGKKRELVARIAPGEGTYYGALYADSVKGRFTISRDNAKNTVYLQMNSLRPEDTALYYCASGVAWGQGTLVTVSSGGGGSGGGGSGGGGSGGGGSEVQLVESGGGVVQPGGSLRLSCAASGFTFSSFAMTWVRRPPGKGLEWVATITNKGVTSYADSVKGRFTISRDNAKNTLYLQMNSLRPEDTALYICANARRTGPRAPTDIGSYRGQGTLVTVSSGGGGSGGGSEVQLVESGGGVVQPGGSLRLSCAASGFTFRSFGMSWVRQAPGKGPEWVSSISGSGSDTLYADSVKGRFTISRDNSKNTLYLQMNSLRPEDTALYYCTIGGSLSRSSQGTLVTVSSA |  |  |  |
